Results on four proteins are retold here after patent US20070166779.

The target in one series is T1, recombinant human SLPI.
T1 chain: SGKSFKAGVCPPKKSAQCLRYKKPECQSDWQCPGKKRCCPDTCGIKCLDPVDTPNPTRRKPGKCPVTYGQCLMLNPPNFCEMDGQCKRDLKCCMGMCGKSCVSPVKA

In series [1] the target is T2, SLPI present in human saliva.
T2 chain: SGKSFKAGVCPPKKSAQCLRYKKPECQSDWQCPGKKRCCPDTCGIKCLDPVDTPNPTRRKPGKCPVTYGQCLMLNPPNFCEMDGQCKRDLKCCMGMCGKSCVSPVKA

B1: cathepsin G (protein)
chain: IIGGRESRPHSRPYMAYLQIQSPAGQSRCGGFLVREDFVLTAAHCWGSNINVTLGAHNIQRRENTQQHITARRAIRHPQYNQRTIQNDIMLLQLSRRVRRNRNVNPVALPRAQEGLRPGTLCTVAGWGRVSMRRGTDTLREVQLRVQRDRQCLRIFGSYDPRRQICVGDRRERKAAFKGDSGGPLLCNNVAHGIVSYGKSSGVPPEVFTRVSSFLPWIRTTMRS
In the case of B1, in the series with recombinant human SLPI, the “cleavage of rSLPI, LC/MS (1 ug rSLPI, 50 ng protease, 5 hours)” value is listed as “did not result in the formation of the second peak” and the “cleavage of the reduced form of rSLPI” value is on record as “Reduction of the rSLPI samples in the presence of the proteases did result in cleavage of the SLPI protein”. The “cleavage of SLPI in human saliva, Western analysis” value (shortened to “cleavage of SLPI in human saliva”) in series [1] is “The larger SLPI cleavage product was not observed when the saliva samples were incubated with cathepsin G, tryptase and proteinase 3”.

B2: elastase (protein)
chain: IVGGRRARPHAWPFMVSLQLRGGHFCGATLIAPNFVMSAAHCVANVNVRAVRVVLGAHNLSRREPTRQVFAVQRIFENGYDPVNLLNDIVILQLNGSATINANVQVAQLPAQGRRLGNGVQCLAMGWGLLGRNRGIASVLQELNVTVVTSLCRRSNVCTLVRGRQAGVCFGDSGSPLVCNGLIHGIASFVRGGCASGLYPDAFAPVAQFVNWIDSIIQ
As to B2, in the series with recombinant human SLPI, the “cleavage of rSLPI, LC/MS (1 ug rSLPI, 50 ng protease, 5 hours)” value is listed as “did not result in the formation of the second peak” and the “cleavage of the reduced form of rSLPI” value is recorded as “Reduction of the rSLPI samples in the presence of the proteases did result in cleavage of the SLPI protein”. In addition, the “cleavage of SLPI in human saliva” value in series [1] is given as “Minor digestion of SLPI was observed after the saliva was incubated with elastase”.

B3: proteinase 3 (protein)
chain: IVGGHEAQPHSRPYMASLQMRGNPGSHFCGGTLIHPSFVLTAAHCLRDIPQRLVNVVLGAHNVRTQEPTQQHFSVAQVFLNNYDAENKLNDVLLIQLSSPANLSASVATVQLPQQDQPVPHGTQCLAMGWGRVGAHDPPAQVLQELNVTVVTFFCRPHNICTFVPRRKAGICFGDSGGPLICDGIIQGIDSFVIWGCATRLFPDFFTRVALYVDWIRSTLR
As for B3, in the series with recombinant human SLPI, the “cleavage of rSLPI, LC/MS (1 ug rSLPI, 50 ng protease, 5 hours)” value was “did not result in the formation of the second peak” and the “cleavage of the reduced form of rSLPI” value is listed as “Reduction of the rSLPI samples in the presence of the proteases did result in cleavage of the SLPI protein”. Further, the “cleavage of SLPI in human saliva” value in series [1] was “The larger SLPI cleavage product was not observed when the saliva samples were incubated with cathepsin G, tryptase and proteinase 3”.

B4: human chymase (protein)
chain: IIGGTECKPHSRPYMAYLEIVTSNGPSKFCGGFLIRRNFVLTAAHCAGRSITVTLGAHNITEEEDTWQKLEVIKQFRHPKYNTSTLHHDIMLLKLKEKASLTLAVGTLPFPSQFNFVPPGRMCRVAGWGRTGVLKPGSDTLQEVKLRLMDPQACSHFRDFDHNLQLCVGNPRKTKSAFKGDSGGPLLCAGVAQGIVSYGRSDAKPPAVFTRISHYRPWINQILQAN
As for B4, in the series with recombinant human SLPI, the “cleavage of rSLPI at ten-fold excess of rSLPI (data not shown)” value is “Even in a ten-fold excess of rSLPI to chymase most of the rSLPI protein was cleaved”; the “cleavage of rSLPI, LC/MS (second peak with additional 18 mass units)” value is recorded as “the presence of the second peak indicated that chymase indeed cleaved rSLPI”; the “cleavage of rSLPI, SDS-PAGE with Coomassie stain (rSLPI:chymase molar ratio 40:1, 37 C)” value was “cleavage of recombinant human SLPI was observed after rSLPI was incubated with human chymase for about 20 minutes”. The “cleavage of SLPI in human saliva” value in series [1] is listed as “exogenous chymase cleaved SLPI in the saliva sample as it did with the rSLPI”.
